From patent US20080131497A1, “Formulations of DNase and Methods of Use Thereof” (priority 2006, published 2008)
Where a chain is given by its changes, count along the chain named.

Columns and labels:
[1] = administered by inhalation, CF patients; cited from earlier work
[2] = system: colony forming units (CFU); conditions: administered by inhalation, CF patients; cited from earlier work
DNA [3] = test: Enzymatic activity of human DNase forms, methyl green (MG) assay; assay type: biochemical
Description: Kurnick, Arch. Biochem. 29:41 (1950). […] Thus, by combining the purified deamidated DNases and the purified non-deamidated DNase of the present invention in various proportions, it is possible to prepare pharmaceutical compositions of human DNase having any desired specific activity in the range between the specific activities of the individual components, as may be optimal for treating particular disorders.

DNA [4] = test: Enzymatic activity of doubly deamidated DNase; assay type: biochemical; conditions: deamidated at Asn 7 and Asn 74
DNA [5] = test: DNase viscosity assay (DNA digestion); assay type: biochemical; conditions: DNase 1 μg/mL, 2 mg/mL DNA, 1 mM Ca2+ and Mg2+
Description: At specific time points aliquots of samples were taken from the vials, diluted and analyzed for DNase activity. Enzymatic activity of DNase was determined by viscosity assay. DNA decomposition by DNase results in decrease of viscosity. DNase at 1 μg/mL normally can digest 2 mg/mL DNA resulting in decrease of viscosity from ˜25 cP (5 rpm) to 10 cP in ˜10 min (and to approaching 1 cP in longer time) in presence of 1 mM Ca^2+ and Mg^2+ ions. Kinetics of viscosity change due to degradation of DNA was measured by Brookfield D-II+ Pro viscosimeter at 5 rpm. Results showing increased stability for DNase when stored in the presence of empty liposomes or liposomal encapsulated antiinfective are presented in FIG. 2.
Activity was determined as a reciprocal value of a time to reduce viscosity in half, normalized to activity of standard DNase solution (A=T1/2^std/T1/2). The two curves in FIG. 3 illustrate an activity assay and how T1/2 is determined. The curves represent typical change in viscosity of DNA solution after DNase is added. v1 is viscosity at 1 minute, when the first measurement point is taken. T1/2 is the time interval after adding DNase required to reach viscosity level equal to half of v1.

NC[C@H]1O[C@H](O[C@H]2[C@H](O)[C@@H](O[C@H]3O[C@H](CO)[C@@H](O)[C@H](N)[C@H]3O)[C@H](N)C[C@@H]2N)[C@H](N)C[C@@H]1O [tobramycin, reference compound]
improvement in FEV1 [1]: approximately 10% | reduction in colony forming units (CFU) [2]: about 2 log units

B1: deamidated human DNase: human DNase deamidated at the asparagine residue at position 74 of native mature human DNase (protein, UniProt P24855 23-282, looked up, variant N74D)
Deoxyribonuclease-1: LKIAAFNIQTFGETKMSNATLVSYIVQILSRYDIALVQEVRDSHLTAVGKLLDNLNQDAPDTYHYVVSEPLGRDSYKERYLFVYRPDQVSAVDSYYYDDGCEPCGNDTFNREPAIVRFFSRFTEVREFAIVPLHAAPGDAVAEIDALYDVYLDVQEKWGLEDVMLMGDFNAGCSYVRPSQWSSIRLWTSPTFQWLIPDSADTTATPTHCAYDRIVVAGMLLRGAVVPDSALPFNFQAAYGLSDQLAQAISDHYPVEVMLK
modifications: deamidation
notes: human DNase deamidated at the asparagine residue at position 74 of native mature human DNase
enzymatic activity compared to non-deamidated human DNase (DNA [3]): just over half

B2: doubly deamidated DNase: human DNase deamidated at asparagine position 7 in addition to position 74 (protein, UniProt P24855 23-282, looked up, variant N7D N74D)
Deoxyribonuclease-1: B1 Deoxyribonuclease-1 with N7D
modifications: deamidation
enzymatic activity (DNA [4]): enzymatically inactive

B3: DNase: recombinant human deoxyribonuclease I, an enzyme which selectively cleaves DNA; standard in viscosity assay (protein, UniProt P24855 23-282, looked up)
Deoxyribonuclease-1: B1 Deoxyribonuclease-1 with D74N
time for decrease of viscosity from ~25 cP (5 rpm) to 10 cP (DNA [5]): ~10 min

B4: Pulmozyme: highly purified, commercially available solution of DNase (from Genentech); recombinant human DNase (protein, UniProt P24855 23-282, looked up)
Deoxyribonuclease-1: B1 Deoxyribonuclease-1 with D74N
improvement in FEV1 [1]: approximately 10%
